PMC11290222
Like-named read-outs stand apart in the source and are kept apart here. Each block holds one molecule with its values, some of them ahead of it.

What was measured:
[1] = target: Ultrabithorax full-length fused to the N-terminal half of Venus (VN-Ubx) (Drosophila) (UniProt P83949); experiment: split reporter (BiFC, NanoBiT); BiFC in HEK293 cells co-transfected with VN- and VC-plasmids and pCAG-mCherry; read 48 h after transfection; percent = Venus fluorescent cells in one hundred red fluorescent cells, three independent triplicates
[2] = target: Ubx with E19G in the homeodomain, fused to VN (Ubx^E19G) (Drosophila); experiment: as above
[3] = target: Ubx homeodomain fused to VN (UbxHD) (Drosophila); experiment: as above
[4] = target: Antp^AAAA-Ubx BiFC complex (YPWM mutant Antp with VNUbx) (Drosophila) (UniProt P02833); experiment: split reporter (BiFC, NanoBiT) + FRET or BRET; BiFC-FRET in HEK293 cells: Venus reconstituted by the Antp-Ubx BiFC as acceptor, third protein fused to ECFP as donor; confocal spectral imaging 48 h after transfection; E-value by FRETTY in ImageJ
[5] = target: AntpΔHD-Ubx BiFC pair (VC-AntpΔHD with VNUbx) (Drosophila) (UniProt P02833); experiment: as above
[6] = target: Ubx homeodomain fused to VN (UbxHD) (Drosophila); experiment: split reporter (BiFC, NanoBiT); BiFC in HEK293 cells co-transfected with VN- and VC-plasmids and pCAG-mCherry; read 48 h after transfection; percent = Venus fluorescent cells in one hundred red fluorescent cells, three independent triplicates; remark: listed apart in the source

Sequence of Ubx homeodomain fused to VN (UbxHD) (Drosophila) (P83949 whole entry, the tested form may be a part): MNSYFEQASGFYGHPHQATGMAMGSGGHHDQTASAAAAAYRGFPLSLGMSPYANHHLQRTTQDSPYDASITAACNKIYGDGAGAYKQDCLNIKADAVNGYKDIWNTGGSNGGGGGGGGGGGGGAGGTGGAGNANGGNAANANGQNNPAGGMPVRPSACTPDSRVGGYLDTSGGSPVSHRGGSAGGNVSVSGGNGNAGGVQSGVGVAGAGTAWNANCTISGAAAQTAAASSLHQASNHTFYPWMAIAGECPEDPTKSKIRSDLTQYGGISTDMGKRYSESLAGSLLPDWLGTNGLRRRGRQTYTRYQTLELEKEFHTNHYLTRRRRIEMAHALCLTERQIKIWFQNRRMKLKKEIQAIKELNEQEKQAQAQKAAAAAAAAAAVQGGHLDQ

Molecule: Antp lacking homeodomain helix 1, fused to VC (AntpΔH1) (from UniProt P02833 1-378) (natural protein)
percent of transfected cells positive in BiFC [1]: 24%

Molecule: Antennapedia full-length fused to the C-terminal half of Venus (VC-Antp) (from UniProt P02833 1-378) (natural protein)
percent of transfected cells positive in BiFC [2]: 86%

B1: Extradenticle fused to ECFP (natural protein)
chain: MEDPNRMLAHTGGMMAPQGYGLSGQDDGQNAGSENEVRKQKDIGEILQQIMSISEQSLDEAQARKHTLNCHRMKPALFSVLCEIKEKTVLSIRNTQEEEPPDPQLMRLDNMLIAEGVAGPEKGGGGAAAASAAAASQGGSLSIDGADNAIEHSDYRAKLAQIRQIYHQELEKYEQACNEFTTHVMNLLREQSRTRPITPKEIERMVQIIHKKFSSIQMQLKQSTCEAVMILRSRFLDARRKRRNFSKQASEILNEYFYSHLSNPYPSEEAKEELARKCGITVSQVSNWFGNKRIRYKKNIGKAQEEANLYAAKKAAGASPYSMAGPPSGTTTPMMSPAPPQDSMGYPMGSGGYDQQQPYDNSMGGYDPNLHQDLSP
FRET E value [4]: 0.16
FRET E value [5]: 0.12

B2: TATA-binding protein fused to a Venus half for BiFC (TBP) (natural protein)
chain: MDQMLSPNFSIPSIGTPLHQMEADQQIVANPVYHPPAVSQPDSLMPAPGSSSVQHQQQQQQSDASGGSGLFGHEPSLPLAHKQMQSYQPSASYQQQQQQQQLQSQAPGGGGSTPQSMMQPQTPQSMMAHMMPMSERSVGGSGAGGGGDALSNIHQTMGPSTPMTPATPGSADPGIVPQLQNIVSTVNLCCKLDLKKIALHARNAEYNPKRFAAVIMRIREPRTTALIFSSGKMVCTGAKSEDDSRLAARKYARIIQKLGFPAKFLDFKIQNMVGSCDVKFPIRLEGLVLTHCNFSSYEPELFPGLIYRMVRPRIVLLIFVSGKVVLTGAKVRQEIYDAFDKIFPILKKFKKQS
percent of transfected cells positive in BiFC [6]: 41%

Results, then the molecule that gave them:

percent of transfected cells positive in BiFC [1]: 6%
Molecule: Antp with the homeodomain deleted, fused to VC (AntpΔHD) (from UniProt P02833 1-378) (natural protein)

percent of transfected cells positive in BiFC [1]: 12%
Molecule: Antp lacking homeodomain helixes 1 and 2, fused to VC (AntpΔH1-2) (from UniProt P02833 1-378) (natural protein)

percent of transfected cells positive in BiFC [3]: 15%
percent of transfected cells positive in BiFC [1]: 34%
Molecule: TBP without the PolyQ stretch, fused to a Venus half for BiFC (TBPΔQ) (from UniProt P20227 1-353) (natural protein)

percent of transfected cells positive in BiFC [3]: 96%
Molecule: Antp homeodomain fused to VC (AntpHD) (domain or fragment)

percent of transfected cells positive in BiFC [2]: 67%
percent of transfected cells positive in BiFC [1]: 60%
Molecule: Antp homeodomain with E19G, fused to VC (AntpHD^E19G) (domain or fragment)
